Target: FLAG-tagged TDP-marginal peptide 20 (TDP-MP20), shortened splicing isoform of TDP-43 (human (cDNA cloned from HEK293T cells))
Experiment: co-IP; HEK293T cells co-overexpressing a FLAG-tagged TDP-43 isoform and FL-Venus; IP with anti-DDDDK (FLAG) antibody, 3 h at 4°C, Protein G Mag Sepharose beads, three low-salt washes and one high-salt wash; Venus signal normalised to FLAG signal in the IP (n = 3)

FLAG-tagged TDP-marginal peptide 20 (TDP-MP20), shortened splicing isoform of TDP-43 (human (cDNA cloned from HEK293T cells)), sequence (Q13148 whole entry, canonical isoform): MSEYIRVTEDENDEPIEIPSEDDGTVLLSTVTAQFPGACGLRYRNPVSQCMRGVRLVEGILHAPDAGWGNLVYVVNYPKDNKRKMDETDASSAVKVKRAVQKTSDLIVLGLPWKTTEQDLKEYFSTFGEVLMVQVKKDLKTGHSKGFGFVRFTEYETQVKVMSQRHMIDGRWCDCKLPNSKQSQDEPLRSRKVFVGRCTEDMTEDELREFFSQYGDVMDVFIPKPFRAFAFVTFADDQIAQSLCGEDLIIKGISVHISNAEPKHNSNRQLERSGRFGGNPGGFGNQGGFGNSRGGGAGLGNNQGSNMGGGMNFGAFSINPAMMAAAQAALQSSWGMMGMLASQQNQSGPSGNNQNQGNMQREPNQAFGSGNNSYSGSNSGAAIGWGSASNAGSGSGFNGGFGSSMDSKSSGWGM

fold of co-precipitated FL-Venus (ratio of FL-Venus to FLAG in the IP) relative to FLAG-FL: 5.7 fold
fold of co-precipitated FL-Venus (ratio of FL-Venus to FLAG in the IP) relative to FLAG-MP18: 2.3 fold
Substance: TDP-FL fused to Venus (from UniProt Q13148 1-414) (natural protein)

Reference: paper PMC12333503
